From patent US20160039936A1, “FIBROBLAST GROWTH FACTOR RECEPTOR INHIBITION FOR THE TREATMENT OF DISEASE” (UNIVERSITY OF MIAMI, priority 2011, published 2016) come the findings set out here.

Holding throughout (type): cell-based, rat
Assay [1] deals with isolated NRVM. In words: Hypertrophic marker expression in NRVM (RT-PCR, α-actinin immunoblot). Conditions: for α-actinin protein levels: 48 h, immunoblotting; for expression of ANP and BNP / expression of medium chain acyl-CoA dehydrogenase (MCAD) / expression of α-myosin heavy chain (α-MHC) / expression of β-myosin heavy chain (β-MHC): RT-PCR. The procedure:
RNA was purified from isolated NRVM using the RNeasy kit (Qiagen), and from mouse cardiac and renal tissue using 1 ml per 100 mg tissue TRIzol (Invitrogen), following the manufacturers' protocol. Prior to RT-PCR, total RNA samples were digested with DNase I (Roche) and RNA was transcribed into cDNA using Superscript II (Invitrogen). For RT-PCR, 100 ng cDNA, AmpliTaq Gold DNA polymerase (Applied Biosystems) and sequence specific primers were used. 30 cycles (95° C., 5 minutes-53° C., 30 seconds-72° C., 30 seconds) were run on a GeneAmp PCR System 9700 (Applied Biosystems) and reactions were analyzed on a 2% agarose gel. Ethidium bromide signals were captured with a Bio-Rad Gel Doc XR system and quantified by densitometry using ImageJ software (NIH). Values were normalized to GAPDH signals and cDNAs from three independent experiments were analyzed. For nested PCR, 100 ng cDNA were used in the first run (15 cycles) with sequence specific outside primers. Five percent of the reaction was used as template for the second run (25 cycles) with sequence specific inside primers, and the total reaction was analyzed by agarose gel electrophoresis.
(§1) NRVM were scraped from a 6 cm-plate using 400 μl CHAPS extraction buffer [(20 mM Tris-HCl pH7.5, 500 mM NaCl, 0.5% CHAPS, protease inhibitor cocktail (Roche), protein phosphatase inhibitors (Sigma-Aldrich)] and incubated on ice for 15 minutes. The cell lysate was centrifuged at 14,000 rpm and 4° C. for 15 minutes and the supernatant boiled in sample buffer and analyzed by SDS-PAGE and immunoblotting as described before (Faul et al., Cell Biol., 169(3):415-424, 2005; Faul et al., Mol. Cell Biol., 27(23):8215-8227, 2007). For protein extraction from mouse hearts, tissue was isolated, minced and homogenized in CHAPS extraction buffer at 1:10 (w:v) and protein lysates were prepared as described above. Antibodies to sarcomeric α-actinin (EA-53; Sigma-Aldrich; 1:1000), total (Cell Signaling; 1:1000) and phospho-ERK (Cell Signaling; 1:1000), total and phospho-NFAT-c1 (Santa Cruz Biotechnology; 1:200), total and phospho-Akt (Cell Signaling; 1:1000 and 1:2000), and GAPDH (Abcam; 1:10,000) were used as primary antibodies and horseradish peroxidase conjugated goat-anti-mouse and goat-anti-rabbit (Promega; 1:20,000) were secondary antibodies.
On the technique in general: In western blotting, separated proteins are transferred to a membrane and probed.

Assay [2] deals with NFAT. Briefly: NFAT gene reporter assay in NRVM. Conditions: FGF 25 ng/ml, 2 hours. As for the experimental part:
The assay was done as described previously (Kuhn et al., 2009). Briefly, 24 hours after plating, NRVM were serum-starved and infected by an adenovirus (AdNFAT-luc, 20 moi) carrying a firefly luciferase construct under the transcriptional control of three consensus NFAT binding sites (Biomyx). To enable normalization of the ensuing measurements, NRVMs were also infected with an adenovirus (AdRenilla, 10 moi) encoding a renilla luciferase under the transcriptional control of a CMV promoter. Cells were incubated in FGF23 or FGF2 at 25 ng/ml for 2 hours after pre-treatment with or without cyclosporine A (1 μg/ml; Sigma-Aldrich), AZD4547 (5 nM; ChemieTek), or anti-FGFR4/U3-11 (U3Pharma; 10 μg/ml) for 60 minutes. Chemiluminescence was detected and quantified in 4×10^5 cells using the Dual-Luciferase Reporter Assay System (Promega) according to the manufacturer's instructions, and Infinite M200 PRO reader (Tecan). Firefly luciferase activities were then normalized to renilla luciferase activities. All experiments were conducted in triplicates and repeated three times.

The test system of assay [3] is isolated NRVM. Briefly: Signaling immunoblots in NRVM (p-ERK, Egr-1, p-NFAT, p-Akt). Conditions: for Egr-1 levels / phosphorylated ERK: 30 and 60 minutes. As for the experimental part:
as §1

B1: FGF2: recombinant mouse FGF2 (Ala11-Ser154) (R&D Systems) (protein)
chain: ALPEDGGAAFPPGHFKDPKRLYCKNGGFFLRIHPDGRVDGVREKSDPHVKLQLQAEERGVVSIKGVCANRYLAMKEDGRLLASKCVTEECFFFERLESNNYNTYRSRKYSSWYVALKRTGQYKLGSKTGPGQKAILFLPMSAKS
For B1, in assay [1], the α-actinin protein levels result was “increase”; the “expression of ANP and BNP” value is reported as “increased”; the “expression of medium chain acyl-CoA dehydrogenase (MCAD)” value was “decreased”; the “expression of α-myosin heavy chain (α-MHC)” value is listed as “decreased”. Also, the “expression of β-myosin heavy chain (β-MHC)” value in assay [1] is reported as “increased”. Besides, the luciferase activity entry in assay [2] was “did not increase”. In assay [3], the Egr-1 levels result is listed as “increase” and the “phosphorylated ERK” value was “robust increase”. For the same molecule, in assay [3] (after 60 minutes), the “phosphorylated Akt” value was “modest increase” and the “phosphorylated NFAT” value is “had no effect”.

B2: FGF23: recombinant mouse FGF23, 6His-tagged Tyr25-Val251 (Arg179Gln) (R&D Systems) (protein)
chain: YPDTSPLLGSNWGSLTHLYTATARTSYHLQIHRDGHVDGTPHQTIYSALMITSEDAGSVVITGAMTRRFLCMDLHGNIFGSLHFSPENCKFRQWTLENGYDVYLSQKHHYLVSLGRAKRIFQPGTNPPPFSQFLARRNEVPLLHFYTVRPRRHTQSAEDPPERDPLNVLKPRPRATPVPVSCSRELPSAEEGGPAASDPLGVLRRGRGDARGGAGGADRCRPFPRFV
modifications: left off: small tags and cut ends
Consider B2, for which, in assay [1], the α-actinin protein levels result is recorded as “increase”; the “expression of ANP and BNP” value is reported as “increased”; the “expression of medium chain acyl-CoA dehydrogenase (MCAD)” value was “decreased”; the “expression of α-myosin heavy chain (α-MHC)” value is given as “decreased”. For the same molecule, in assay [1], the “expression of β-myosin heavy chain (β-MHC)” value is on record as “increased”. The luciferase activity entry in assay [2] is on record as “significant elevation”. Moreover, in assay [3], the Egr-1 levels entry was “only a modest increase” and the “phosphorylated ERK” value is “only a modest increase”. In addition, the “phosphorylated NFAT” value in assay [3] (after 60 minutes) is listed as “modest decrease”.
